# Laboratory results reported in the nanobody polyreactivity screen of Harvey et al. (2022).
# Assay: yeast display, Sf9 membrane polyspecificity reagent, FACS + sequencing; frameworks hold sequencing errors
# In short: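 Nanobodies came from a synthetic yeast display library in Saccharomyces cerevisiae BJ5465, induced with galactose for 36–48 hours and stained for 1 hour at 4 °C with 10% biotinylated, detergent-solubilized Sf9 membrane reagent. Cells were enriched on streptavidin microbeads and then FACS-sorted, with low and high (top ~1%) gates set on anti-HA fluorescence for expression and streptavidin fluorescence for reagent binding. Each polyreactivity label reflects the gate a clone came from. Genes were amplified by colony PCR, sequenced by MiSeq 2 × 250 and filtered by CDR length.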
row,Sequence,polyreactivity (PSR sort gate)
1,QVQLVESGGGLVQAGGSLRLSCDASGRTFRFNDGGWYRQAPVKERELVAAITYRGGSTYYPDSVKGRFTISRDNAKNTVYLQMNSLKPDDTAVYYCAADYFWSRTQEFDYWGQGSQVTVSS,high polyreactivity
2,QVQLVESGGGLVQAGGSLRLSCDASGRTFRYYAMGWYRQAPGKEREMVAAITRSGGSTYYADSVKGRFTISRDNAKNTVYLQMNSLKAVDTAVYYCAESRFYSYGIDYDYWGQGTQVTVSS,high polyreactivity
3,QVQLVESGGGLVQAGGSLRLSCDASGSIFDPYAMGWYRQAPGKERELVAGISFSGGRTYYADSVKGRFTISRDNAKNTVYLQMNSLKPEDTAVYYCKKLLTQGAYPYYYWGQGTQVTVSS,high polyreactivity
4,QVQLVESGGGLVQAGGSLRLSCDASGSIFIANAMGWYRQAPGKEREFVAAINWSRGSTYYADSVKGRFTISRDNAKNTVYLQMNSLKPEDTAVYYCNAASLKFTSPVRFGYWGQGTQVTVSS,high polyreactivity
5,QVQLVESGGGLVQAGGSLRLSCDASGSIFKYYAMGWYRQAPGKEREWVAAITIGGNTNYADSVKGRFTISRDNAKNTVYLQMNSLKPEDTAVYYCATGGYYSAIVYGGYDYWGQGTQVTVSS,low polyreactivity
6,QVQLVESGGGLVQAGGSLRLSCDASGSIIRYYAMGWYRQAPGKERELVAAINSLGGTTYYADSVKGRFTISRDNAKNTVYLQMNSLKPEDTAVYYCAAGYPPLHTSVQQTAHYGLDYCGQGTQVTVSS,high polyreactivity
7,QVQLVESGGGLVQAGGSLRLSCDASGSNFFYARGWSRQAPGRERELVADITYTGGSKYADSVKGRFTISRDNAKNTVDLQLNILKPEDTAVSYCAKLDGGLFDYWGQGTQVNVSS,low polyreactivity
8,QVQLVESGGGLVQAGGSLRLSCDASGSTFDNYAMGWYRQAPGKERELVAAITTGVTTYYADSVKGRFTISRDNAKNTVYLQMNSLKPEDTAVYYCAADYVSYSQARHEYGYWGQGTQVTVSS,low polyreactivity
9,QVQLVESGGGLVQAGGSLRLSCDASGSTFDQYVMGWYRQAPWKERELVAAISVSGGRTYYADSVKGRFTISRDNAKNTVYLQMKSLKPDDTAVYYCNAPKRYSSIGYDYWGQGTQVTVSS,high polyreactivity
10,QVQLVESGGGLVQAGGSLRLSCDASGSTFDYYAMGWYRQAPGKERELVAGIDSAGSTNYADSVKGRFTISRDNAKNTVYLQMNSLKTGRYRGLYCNVGKTITTYAFPTFDYCGQGTQVTVSS,low polyreactivity
11,QVQLVESGGGLVQAGGSLRLSCDASGSTFRGYAMGWYRPAPGKERELVAAITSDGSTNYADSEKGRFTISRDNAKNTVYLQMNSLKPEDTAVYYCNVKATRKWWDRRVYRYNYWGQGTQVTVSS,high polyreactivity
12,QVQLVESGGGLVQAGGSLRLSCDASGSTFRGYAMGWYRQAPGKERDLVAAISRYGGSTYYADSVKGRFTISRDNAKTTVYIQMNSLKPEDTAGYYCNARSSKRSSRGYDYWGQGTQVTVSS,high polyreactivity
13,QVQLVESGGGLVQAGGSLRLSCDASGSTFSPYAMRWYRQAPGKERELVAAINYSSGSTYYADSVKGRFTISRDNAKNTVYLQMNSLKPEDTAVYYCAYGWYAGYPYDYWGQGTQVTVSS,low polyreactivity
14,QVQLVESGGGLVQAGGSLRLSCDASGSTFYRNVIGWYRQAPGKERELVAAISSGGSTYYADSVKGRFTISRDNAKNTVYFQMNSLKPEDTAVYYCAARKRYSYDYWGQGTQVTVSS,low polyreactivity
15,QVQLVESGGGLVQAGGSLRLSCDASGSTFYWYAMGWYRQAPGKERELVAAITYSSGRTYYADSVKGRFTISRDNAKNTVYLQMNSLKPEDTAVYYCGWSALNGYDYWGQGTQVTVSS,high polyreactivity
16,QVQLVESGGGLVQAGGSLRLSCDASGSTIKYYAMGWYRQAPGTEMELVARITSDCGSTFYADSVKGRFTISRDNAKNTVYLLMNRLKPEDTAVYYCNTDYAFRHCWFYPMDYWGQGTQVTVSS,high polyreactivity

row,Sequence,polyreactivity (PSR sort gate)
1,QVQLVESGGGLVQAGGSLRLSCDASGYIFSANAMGWYRQSPGKERELVAAITSSGGSTYYADSVKGRFTISRDNAKNTVYLQMNSLKPEDTAVYYCAAYSIYYRSGYPSRYRYYYWGQGTQVTVSS,high polyreactivity
2,QVQLVESGGGLVQAGGSLRLSCDPSGLTFNTYAMGWYRQAPGKERELVAAISSDGSTYYADSVKGRFTITRDNAKNTVYLQMNSLKPEDTAVYYCAATSFWWDLAGYYHWYDYWGQGTQVTVSS,high polyreactivity
3,QVQLVESGGGLVQAGGSLRLSCDPSGSIFDGYGMGWYRQAPGKERELVASITWNDGSTYYADSVKGRFTISRDNAKNTVYLQMNSLKPEDTAVYYCAADQWGYEYDYWGQGTQVTVSS,low polyreactivity
4,QVQLVESGGGLVQAGGSLRLSCEASGRTFDTYAMGCYRQAPGKERELVAAITTSGGTTYYADSVKGRFTISRDNAKNTVYLQMNSLKPEDTAVYYCAADPWIEYTYGSKAYYYWGQGTQVTVSS,low polyreactivity
5,QVQLVESGGGLVQAGGSLRLSCEASGSTFYRYAMGWYRQAPGKERELVDAISSSGGSTYYADSVKGRFTISRDNAKNTVYLQMNSLKPEDTAVYYCNASYRVRRFDYWGQGTQVTVSS,low polyreactivity
6,QVQLVESGGGLVQAGGSLRLSCEDSGFIFRVYAMGWYLQAPGKERELVAAINSGGSTNYADSVKGRFTISRDNAKNTVYLQMNSLKPEDTAVYYCAARVKTSYRYLRTYNYCGQGTQVTVSS,high polyreactivity
7,QVQLVESGGGLVQAGGSLRLSCGASGITFVRYAMGWYRQAPGKERELVAAITTSGGSTYYADSVKGRFTISRDNAKNTVYLQMNSLKPEDTAVYYCAARANAASGTFKYWGQGTQVTVSS,high polyreactivity
8,QVQLVESGGGLVQAGGSLRLSCGASGLTCREYAMGWYRQAPGKERELVAAITSTGGNTYYADSVKGRFPISRDNAKNTVYLQMNSLTPEDTAVYYCAARTTRRVTSGKFDYWGQGTQVTVSS,high polyreactivity
9,QVQLVESGGGLVQAGGSLRLSCGASGRIFWDNAMGWYRQAPGKERELVAAIDYRGGNTNYADSVKGRFTISRDNAKNTVYLQMNRLKTEDTAVYYCNAEWAVRYPGYDYWGQGTQVTVSS,low polyreactivity
10,QVQLVESGGGLVQAGGSLRLSCGASGRTVGGNAMGWERPAPGQERELVAAITNSASTYADSVKGRFTISRDNAQNTVYLLMNSLKPEDTAGSYCAARTLPRVYRNTFGYWGQGTQVTVSS,low polyreactivity
11,QVQLVESGGGLVQAGGSLRLSCGASGSIIGSYALGWYRQAPGPERELVAAISSSGGRTYYAVSVKGRFTISRDKAKNTVYLQMNRLKPAETAVYYCNTRPGTVFRAGGDDWGQGTQVTVSS,high polyreactivity
12,QVQLVESGGGLVQAGGSLRLSCGASGSSFADNAMGRYRPATGTERELVDTNTGSGGSTYYADSVKGRFTISRDNAKNTVYLLMNSLKPEDTAVYYCAAEVVAWSLYEDFKTYDYWGQGTQVTVSS,low polyreactivity
13,QVQLVESGGGLVQAGGSLRLSCGASGYISVGYAMGWYRPAPGKERELVAAITESGGSTYYADSVKGRFTISRDNAKNTVYLQMNSLKPEDSAVYYCAADVIYEDSMDYWGQGTQVTVSS,low polyreactivity
14,QVQLVESGGGLVQAGGSLRLSCPASGFIFRYYAMGWYRQAPGKERELVAAISWSGGSTYYADSVKGRFTISRDSAKNTVYLQIYSLKPEDTAVYYCGAEGFSYFIYWGQGSQVTVSS,high polyreactivity
15,QVQLVESGGGLVQAGGSLRLSCPASGFNFPYYAKGWYRQAPGKEREFVAAISSGGNTNYADSVKGRFTISRDNAKNTVYLQMNSLKPEDTAVFYCAAGFLRYLNWSVKYDYWGQGTQVTVSS,low polyreactivity
